From patent publication US20260103529A1 (CONFO THERAPEUTICS N V, published 2026)

Key:
Test in all cases: flow cytometry on HEK293T cells transiently expressing Flag-tagged receptor; receptor presence confirmed by anti-Flag detection
[1] = target: T1, human MC5R (melanocortin 5 receptor) (human, UniProt P33032 1-325)
T1 construct: whole, on cells; Flag-tagged in flow cytometry; transiently expressed in HEK293T/HEK293 cells

[2] = target: T2, human MC1R (melanocortin 1 receptor) (human, UniProt Q01726 1-317)
T2 construct: whole, on cells; Flag-tagged in flow cytometry; transiently expressed in HEK293T/HEK293 cells; also called hMC1R

[3] = target: T3, human MC2R (melanocortin 2 receptor) (human, UniProt Q01718 1-297)
T3 construct: whole, on cells; Flag-tagged, transiently expressed in HEK293T cells

[4] = target: T4, human MC3R (melanocortin 3 receptor) (human, UniProt P41968 1-323)
T4 construct: whole, on cells; Flag-tagged in flow cytometry; transiently expressed in HEK293T/HEK293 cells
T4 sequence (P41968 whole entry): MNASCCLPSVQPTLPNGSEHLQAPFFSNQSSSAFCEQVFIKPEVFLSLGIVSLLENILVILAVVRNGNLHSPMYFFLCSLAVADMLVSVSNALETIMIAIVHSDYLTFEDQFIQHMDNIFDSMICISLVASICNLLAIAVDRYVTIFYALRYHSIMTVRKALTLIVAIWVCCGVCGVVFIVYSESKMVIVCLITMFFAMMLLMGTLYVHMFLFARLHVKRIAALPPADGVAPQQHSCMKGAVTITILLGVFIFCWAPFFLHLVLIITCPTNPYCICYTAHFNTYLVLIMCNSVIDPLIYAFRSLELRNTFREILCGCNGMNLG

T3 sequence (Q01718 whole entry): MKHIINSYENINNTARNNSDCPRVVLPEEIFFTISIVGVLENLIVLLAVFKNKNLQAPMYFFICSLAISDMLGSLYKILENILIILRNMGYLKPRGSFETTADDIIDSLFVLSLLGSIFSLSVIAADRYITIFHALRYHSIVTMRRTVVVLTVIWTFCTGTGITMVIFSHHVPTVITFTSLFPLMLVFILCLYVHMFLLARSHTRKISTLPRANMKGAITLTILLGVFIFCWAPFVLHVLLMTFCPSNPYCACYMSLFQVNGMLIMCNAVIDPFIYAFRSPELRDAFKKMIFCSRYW
T2 sequence (Q01726 whole entry): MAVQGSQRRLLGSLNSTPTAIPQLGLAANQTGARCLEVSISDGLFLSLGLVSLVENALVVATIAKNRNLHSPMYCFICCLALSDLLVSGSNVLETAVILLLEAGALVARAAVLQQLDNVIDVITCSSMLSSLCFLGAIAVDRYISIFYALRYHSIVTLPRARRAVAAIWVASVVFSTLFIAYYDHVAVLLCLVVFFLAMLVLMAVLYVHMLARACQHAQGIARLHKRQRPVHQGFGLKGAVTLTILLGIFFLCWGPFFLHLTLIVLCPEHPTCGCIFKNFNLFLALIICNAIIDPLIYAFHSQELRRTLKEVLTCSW
T1 sequence (P33032 whole entry): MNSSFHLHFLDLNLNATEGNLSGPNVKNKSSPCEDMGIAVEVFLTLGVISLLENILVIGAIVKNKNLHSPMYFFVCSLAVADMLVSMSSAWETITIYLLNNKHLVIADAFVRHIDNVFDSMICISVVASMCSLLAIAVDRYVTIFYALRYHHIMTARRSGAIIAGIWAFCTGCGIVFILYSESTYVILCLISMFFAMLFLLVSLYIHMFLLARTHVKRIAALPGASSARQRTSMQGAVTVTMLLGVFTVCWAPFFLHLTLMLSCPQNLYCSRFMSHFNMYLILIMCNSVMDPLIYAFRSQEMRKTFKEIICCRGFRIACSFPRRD

- binding result [1]: no binding (tested: 1 µM)
- binding result [2]: no binding (tested: 1 µM)
- binding result [3]: no binding (tested: 1 µM)
- binding result [4]: no binding (tested: 1 µM)
B1: pN0162 (VHH)
VHH: QVQLVESGGGLVQPGGSLRLSCAASGSAFSLNVMGWYRQTPGNQRALVAEITKDGSTNYADSAKGRFTISRDNAKNTVHLQMDSLKPEDTAVYYCKARTGRIVRPLDYWGQGTQVTVSS
notes: Agonist nanobody from llama immunisation, purified from E. coli; also called pN162
